The sequences below were run against HLA-A*02:01 (assay: IEDB peptide-MHC binding, cellular MHC/competitive/fluorescence; ≥ and ≤ were set here for values at or beyond the usual limits of such assays). Conditions: source organism: Mammarenavirus whitewaterense.

| Sequence | IC50 [µM] |
| --- | --- |
| LQFIVFLLL | 51.6 |

Same assay, conditions: source organism: Vaccinia virus WR

| Sequence | IC50 [µM] |
| --- | --- |
| HIDYNEDMIT | 51.4 |
| RTKIPLSKV | ≥ 70 |
| TLPSIFLIIT | 9.73 |
| KLIIDREVV | 6.63 |
| TQHPDYAILA | 6.73 |
| DIVGLDLENL | 16.6 |
| EIFIRYGDA | 30.5 |
| YIIRRSGCRI | 43.1 |
| TVRSIITDA | 10.2 |
| ELMPIRTDTT | 11.7 |
| IINRDIIVI | 10.8 |
| DLEKYFYGEI | ≥ 70 |
| EITELVVEYM | 35.6 |
| RQSSCKMAL | 42.7 |
| SQSERDNYIT | ≥ 70 |
| NIGIVLSNT | 14.6 |
| LQKFSFKIAI | ≥ 70 |
| STNGKIVMT | ≥ 70 |
| LITSAFDLL | 30.3 |
| MIKERRQITM | 24.9 |
| TIKCSNLCT | 8.78 |
| IAHLLEHLL | 14.1 |
| CIKSHSVSLV | ≥ 70 |
| ELIAFSSGT | 5.34 |

| Sequence | IC50 [µM] |
| --- | --- |
| AASSTHRKVA | ≥ 70 |
| SVFYRGAENI | 20.8 |
| MASLLYLIL | 9.14 |
| SLVSYIKTT | 5.37 |
| TASGGKVLI | 37.2 |
| IIIVALTIM | 9.64 |
| HLLISFDST | 28.1 |
| LQTIEIIFT | 9.68 |
| NAKCIEYVT | ≥ 70 |
| PTMNNAKLT | 19.8 |
| PVLPICVRT | 7.3 |
| GIPITIRVT | 18.7 |
| VTKTDGIPI | 8.57 |
| SIVVELEPSL | 7.93 |
| VISLLSMITM | 10.8 |
| ATLGPANRI | 17 |
| EVFHCMDIL | 12 |
| KILTREMGFL | 5.47 |
| YITSGKNNM | 51.6 |
| EVASTHDWST | ≥ 70 |
| DVGYEVIGA | 32.3 |
| NTRDTQQHPI | ≥ 70 |
| KLKYFLGSGA | 7.19 |
| MTENVEEDLA | 24.5 |

| Sequence | IC50 [µM] |
| --- | --- |
| AIFTDASTVA | 18.5 |
| PIKFIAEFL | 8.24 |
| RQLAKAIIT | 9.8 |
| KLIIDREVVA | 15.8 |
| TVPTMNNAKL | 41.7 |
| IVIYPNFSKA | 9.76 |
| FIKPPLITLT | ≥ 70 |
| DLYNGGRIDM | 29.5 |
| SVETITEKT | ≥ 70 |
| LVKWPLLNI | 9.21 |
| KTLDFKSKKV | 52.8 |
| VIGASYISCT | 17.8 |
| CIEYVTLNA | 11.1 |
| TAVNEEWLT | 27 |
| EAAITDAAVA | 26.3 |
| CVDNHLGAT | 52.1 |
| GILSNYVKT | ≥ 70 |
| SINSATESDA | 32.7 |
| LTGSQYYFSM | 5.06 |
| PTNKLQAAV | 6.43 |
| DIEPDLENNL | 54.4 |
| VLTTPGLNHA | ≥ 70 |
| MIKVGNCDET | ≥ 70 |
| ELTASGGKV | 49.8 |

| Sequence | IC50 [µM] |
| --- | --- |
| NQCMSANEA | 13.3 |
| NTCLRCSKL | 24.6 |
| EATYHIIIV | 11 |
| MIVLITMLSI | 6.16 |
| STVASAQIHL | 14.2 |
| NMNYSDDYM | 11.2 |
| TIGNQLYLT | 18.3 |
| ITPDVIINST | ≥ 70 |
| LIVRLNQCM | 19.8 |
| VTNKEGVKI | 57.4 |
| FASGNSIDDI | 9.21 |
| AAASSTHRKV | ≥ 70 |
| AVEHIPTMKI | 14.3 |
| NAKCIEYVTL | 38 |
| VTLQKVLHVT | 35.9 |
| IVMTPSPFYT | 6.46 |
| SINVDSTDEL | 60.3 |
| KLSKLTDKKT | ≥ 70 |
| CTVPTMNNA | 16.1 |
| EINATDIII | 17.1 |
| QQKCDMPSL | 25 |
| HIHKILTREM | 16.2 |
| QISQCQRINM | 19 |
| RINDDSKSI | 13.4 |

| Sequence | IC50 [µM] |
| --- | --- |
| IAFSSGTVI | 43.9 |
| VVELEPSLAT | ≥ 70 |
| LIANIHNHMI | 5.99 |
| VARRKDQTA | 37.7 |
| MVSIDEVAST | 36.8 |
| HMLKLQARNI | 24 |
| LVNAIIDSA | 15.6 |
| DIGTVKDGRL | ≥ 70 |
| ELEEMVDKGT | ≥ 70 |
| GAMVEYVST | 24.8 |
| GIRVKHSFSA | 6.87 |
| SANEAAITDA | 10.2 |
| GAIKCEGLDV | 49 |
| DLVKSYSLI | ≥ 70 |
| DAAVAVAAA | 5.2 |
| CIRISMVISL | 6.22 |
| PVSTNGKIV | ≥ 70 |
| DTQQHPIVVL | ≥ 70 |
| NTIDQTANVV | 6.56 |
| PVKRIIDSEV | 33.8 |
| WIKTISKRM | 23.6 |
| ELVNLIQAKT | ≥ 70 |
| ATDPDADAIA | ≥ 70 |
| CMSANEAAIT | 6.71 |

| Sequence | IC50 [µM] |
| --- | --- |
| ETMPCVKKKA | ≥ 70 |
| DAFSREYSM | 7.57 |
| ITDAAVAVA | 8.52 |
| AASPMLYQLL | 16 |
| DIRTLLPIL | 37.6 |
| DLENNLVKL | 16.2 |
| ELKTQSPDVL | 61 |
| GINQEDGIII | ≥ 70 |
| TANVVFRYM | 19.3 |
| TIRVTSNGL | 23.5 |
| EQEIESLEA | 26.3 |
| IQQLYEFRKV | 8.74 |
| GVSDLISTEI | 41.8 |
| KTFIIHKNL | 9.47 |
| LARNLGLVDI | ≥ 70 |
| GTVINEDIV | 35.7 |
| EIRDQYITA | ≥ 70 |
| DMLNIMNKL | 5.12 |
| VIYPNFSKAM | 17.8 |
| ELEPSLATFI | 11.2 |
| EAVKDKNWT | 38.7 |
| TTTSEVVDM | 10 |
| IQETIRSDT | 49.6 |
| DQYKFHKLL | 16 |

| Sequence | IC50 [µM] |
| --- | --- |
| SIRIKIDKL | 16.5 |
| DLVVLGKVTI | 10.9 |
| SVEKVGINLV | 50 |
| NISTIQESFI | ≥ 70 |
| RIKIDKLRQI | ≥ 70 |
| DMIHNVIDDV | 19.8 |
| AAITDAAVAV | 5.31 |
| KTFMLPKQDI | 33.6 |
| PTLDNILGIL | 63.7 |
| DLSKLSKDVV | ≥ 70 |
| PTRTLDTAI | ≥ 70 |
| YTVMVKINPT | 9.38 |
| LVITKLREHM | ≥ 70 |
| TVTNLISET | 31.1 |
| HLATPINSRI | 7.9 |
| NIGKIIMSL | 7.04 |
| NTFPNITLKI | 10.1 |
| NTSLEIEFT | ≥ 70 |
| ITVTVTFNPV | 6.42 |
| SLSKRERQL | 5.77 |
| TVELMNLKEL | 50.6 |
| VIKCMIDEGA | 9.87 |
| ATESDAIRT | 10.8 |
| KAMCNTRDT | 51.6 |

| Sequence | IC50 [µM] |
| --- | --- |
| YASIINRDII | 7.11 |
| DIRTLLPILL | 50.6 |
| SAKRITESIT | ≥ 70 |
| ELPYDENGI | 8.48 |
| ILSIVGFRPT | 38.1 |
| KVRIFINDRM | 39.7 |
| HASPTLFNA | 8.95 |
| EILTVKRPLL | ≥ 70 |
| EVVANVIGL | 12.2 |
| AASKQQMLM | ≥ 70 |
| SVVTLLCVL | 14.7 |
| NVVSSSTIAT | ≥ 70 |
| SIPKETNELT | ≥ 70 |
| PAAMYQYIFL | 5.57 |
| CVVYPGNGFV | 24.9 |
| PVSTNGKIVM | ≥ 70 |
| LTAVEHIPT | ≥ 70 |
| VIYPNFSKA | 14.2 |
| YVTLNASQYA | 23.1 |
| VTSSGAIYKL | 16.1 |
| LLTKSNNGT | 13.9 |
| SADDIQAIM | 12.1 |
| GVKIRTKIPL | 12.7 |
| LVFIKPPLIT | 38.9 |

| Sequence | IC50 [µM] |
| --- | --- |
| LIRPKILSM | ≥ 70 |
| VTKQDELQAA | 14.3 |
| AIMFKDDNI | 9.74 |
| KIAISSLNKL | 36.6 |
| KQRTPGIITI | 53.2 |
| PVDDGPDDET | 15.2 |
| FVFYKPKHST | ≥ 70 |
| TTSSREERVL | ≥ 70 |
| IVRDMLVNRM | 14.4 |
| YVGSYASNGI | 15.2 |
| KIEPRNILI | 8.32 |
| VVSRHLTNDA | ≥ 70 |
| IVLPNKVRI | 35.1 |
| ELNLSKFMM | 7 |
| NVTNPFDFM | 7.94 |
| VANVVNHVLT | ≥ 70 |
| IVWEKKSLVT | 20.7 |
| IIDFLEGALI | ≥ 70 |
| NIHNHMIKV | 6.46 |
| DASLMDMIT | 10.5 |
| NTDSEMDQRL | ≥ 70 |
| QLPMEDNSDI | 38.5 |
| TIENALVASL | 14.4 |
| DIDEILGIA | ≥ 70 |

| Sequence | IC50 [µM] |
| --- | --- |
| PLSKVHGLDV | 37.9 |
| PVTEDDYKFL | 26.7 |
| LVNLIQAKT | 44.2 |
| DLSKLSKDV | 6.36 |
| EQTSVFSAT | 16.9 |
| ETSFNDKQKV | ≥ 70 |
| EQTSVFSATV | 28.6 |
| KQTFGSLPA | 18.9 |
| MIVLPNKVRI | ≥ 70 |
| SQSTDIVCET | 26 |
| DMLVNRMQRI | 11.7 |
| ETVSTIDGRI | ≥ 70 |
| DLENLYAVT | 6.55 |
| GAIYKLGSSI | 36.6 |
| GVIFLISVIV | 5.83 |
| STHRKVASST | 51.5 |
| SLKRNAEGI | ≥ 70 |
| SATVYGDKI | 12.9 |
| EVFINDNGI | ≥ 70 |
| HLRDQSIKI | 7.25 |
| PVHDILSGL | ≥ 70 |
| IVISPMGKLT | 52.6 |
| ETIGNQLYLT | 14.6 |
| FINKLNGAM | 57.8 |

| Sequence | IC50 [µM] |
| --- | --- |
| SQLSVLSSIT | 11.5 |
| TAVNEEWLTA | 25 |
| VTDTINTVL | 13.6 |
| STMEDRPST | 32.6 |
| KITFALKKLI | 64.7 |
| DAYNIADAA | ≥ 70 |
| GTETKITFA | 60.6 |
| ILRSIEGEL | 8.99 |
| ATYHIIIVA | 6.42 |
| HLNPSRIRIT | ≥ 70 |
| LITTMDGDKL | ≥ 70 |
| NQHNIIVEHL | ≥ 70 |
| MTENVEEDL | 22.1 |
| TASSDSLQT | 54.9 |
| LIKKPYRSI | 59.4 |
| HLSCKSGFT | 6.23 |
| HIIIVALTI | 7.72 |
| RTNRNELFQL | 31.2 |
| IQAKTKNFT | ≥ 70 |
| TMKIFYKHI | ≥ 70 |
| VISLLSMIT | 5 |

— the Immune Epitope Database (IEDB)
